Measured values reported in the RNAGym collection of RNA variant scans (doi:10.1073/pnas.2313332121).

B1: TPR t1 (parent)
chain: GACCAAUCUGCCCUCAGAGCUCGAGAACAUCUUCGGAUGCAGAGGAGGCAGGCUUCGGUGGCGCGAUAGCGCCAACGUCCUCAACCUCCAAUGCAUCCCACCACAUGAUGAUGCCUGAAGAGCCUUGGUUUUUUG

Variants of: B1
Test: polymerase ribozyme fitness, log enrichment relative to wild type (log ratio); higher = more active; in vitro selection for triplet polymerase activity
Summary of the method: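 Fitness measures genotype enrichment against wild-type enrichment on a logarithmic scale, with inverse-variance-weighted averaging of replicates. The logarithm is base 2, and genotypes were kept only with ≥10 input reads and ≥1 read per output in Illumina sequencing. The sequenced libraries came from one triplicate in vitro selection round, including frozen incubation at −7 °C, of PCR-built, transcribed mutant libraries of each subunit of a heterodimeric triplet polymerase ribozyme.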
In the case of GACCAAUCUGCCCUCAGAGCUCGAGAACAUCUUCGGAUGCAGGGGAGACAGGCUUCGGUGGCACGAUAGCGCCAACGCCCUCAACCUCCAAUGCAUCCCACCACAUGAUGACGCCUGAAGAGCCUUUGUUUUUUG, the “polymerase ribozyme fitness (log ratio)” value is reported as -3.79.
In the case of GACCAAUCUGCCCUCAGAGCUCGAGAACAUCUUCGGAUGCAGGGGAGGCAGGCUUCGGUGGCGCGAUAGCGCCAACGUCCUCAACCUCCAAUGCAUCCCACCACAUGAUGACGCCUGAAGAUCCUUGGUUUUUUG, the “polymerase ribozyme fitness (log ratio)” value is reported as -0.183.
In the case of GACCAAUCUGCCCUCAGAGCUCGAGAACAUCUUCGGAUGCAGGGGAGGCAGGCUUCGGUGGCGCGAUAGCGCCAACGUCCUCAACCUCCAAUGCAUCCCACAACAUGAUGAUGCCUGAAGAGCCUUGGUUUUUUG, the “polymerase ribozyme fitness (log ratio)” value is reported as -4.25.
With GACCAAUCUGCCCUCAGAGCUCGAGAACAUCUUCGGAUGCAGUGGAGGCUGGCUUCGGUAGCGCGAUAGCGCCAACGUCCUCAACCUCCAAUGCAUCCCACCACAUGAUGAAGCCUGAAGAGCCUUGGUUUUUUG the “polymerase ribozyme fitness (log ratio)” value was -4.39.
With GACCAAUCUGCCCUCAGAGCUCGAGAACAUCUUCGGAUGCAGGGGAGGCAGGCUUCGGUGGCGCGAUAGCGCGACCGUCCUCAACCUCCAAUGCAUCCCACCACAUGAUGAAGCCUGAAGAGCCUUGGUUUUUUG the “polymerase ribozyme fitness (log ratio)” value was -3.33.
In the case of GACCAAUCUGCCCUCAGAGCUCGAGAACAUCUUCGGAUGCAGGGGAGGCAGGCUUCGGUGGCGCGAUAGCGCCAACAUCCUCCACCUGCAAUGCAUCCCACCACAUGAUGAUGCCUGAAGUGCCUUGUUUUUUUG, the “polymerase ribozyme fitness (log ratio)” value is reported as -5.57.
With GACCAAUCUGCCCUCAGAGCUCGAGAACAUCUUCGGAUGCAGGGGAGGCAGGCUUCGGUGGCGCGAUAGCGCCAACGUCCUCAACCUCCAAUGCAUCCCACCACAUGAUGAUGGCUGAAGAGCCUUGGUUUUUUG the “polymerase ribozyme fitness (log ratio)” value was -3.66.
With GACCAAUCUGCCCUCAGAGCUCGAGAACAUCUUCGGAUGCAGGGGAGGCAGGCUUCGGUGGCGCGAUAGCGUCAACGUCCUCAACCUCCAAUGGAUCCCAUCACAUGAUGAUGCCGGAAGAGCCUUGGUUUUUUG the “polymerase ribozyme fitness (log ratio)” value was -4.87.
For GACCAAUCUGCCCUCAGAGCUCGAGAACAUCUUCGGAUGCAGGGGAGGCAGGCUUCGGUGGCGCGAUAGCGCCAACGUCCUCAACCUCCAAUGCAUCCCACCACAUGAUGAUGCCUGAAGAGCCUUGGUCUUUUG, the “polymerase ribozyme fitness (log ratio)” value was -1.1.
For GACCAAUCUGCCCUCAGAGCUCGAGAACAUCUUCGGAUGCAGUGGUGGCAGGCUUCGGUGGCGCGAUAGCGCCAACGUCCUCAACCUCCAAUGCAUUCCACCACAUGAUGAUGCCUGAAGAGCCUUGGUUUUUUG, the “polymerase ribozyme fitness (log ratio)” value was -3.34.
In the case of GACCAAUCUGCCCUCAGAGCUCGAGAACAUCUUCGGAUGCAGGGGAGGCAGGCUUCUGUGGCGCGAUAGCGCUAACGUCCUCAACCUCCUAUGCAUCCCACUACAUGAUGAUGCCUGAAGAGCCUUGGUUUUUUG, the “polymerase ribozyme fitness (log ratio)” value is reported as -4.93.
In the case of GACCAAUCUGCCCUCAGAGCUCGAGAACAUCUUCGGAUGCAGGGGAGGCAGGCUUCGGUGGCGCGAUAGCGCCAACGUCCUCAACCUCCAAUCCAUCCCACCACAUGAUGAUGCCUGAAAAGCCUUGGUUUUUUG, the “polymerase ribozyme fitness (log ratio)” value is reported as -2.35.
In the case of GACCAAUCUGCCCUCAGAGCUCGAGAACAUCUUCGGAUGCAGGGGAGGCAGGCUUCGGUGGCGCGAUAGCGCCAACGUCCUCAACCUCCAAUGCAUCCCACCACAUGAUGAUUCCUGAAGAGCCUUGGUUUUUUG, the “polymerase ribozyme fitness (log ratio)” value is reported as -2.72.
For GACCAAUCUGCCCUCAGAGCUCGAGAACAUCUUCGGAUGCAGGGGAGGCAGGCUUCGGUGGCGCGAUAGCGCCAACGUCCUCAACCUCCAAUGCAUCCCACCACAUGAUGAUCCCUGAAGAGCCUUGGUUUUUUG, the “polymerase ribozyme fitness (log ratio)” value was -3.
In the case of GACCAAUCUGCCCUCAGAGCUCGAGAACAUCUUCGGAUGCAGGGGAGGCAGGCUUCGGUGACGCGAUAGCGCCAACGUCCUCAACCUCCAAUGCAUCCCACCACAUGAUGAUGCCUGAAGAGCCUUGGUUUUUUG, the “polymerase ribozyme fitness (log ratio)” value is reported as -1.27.
With GACCAAUCUGCCCUCAGAGCUCGAGAACAUCUUCGGAUGCAGGGGAGGCAGGCUUCGGUGUCGCGAUAGCGCCAACGUCCUCAACCUCCAAUGCAUCCCACCACAUGAUGAUGCCUGAAGAGCCUUGGUUUUUUG the “polymerase ribozyme fitness (log ratio)” value was -1.45.
For GACCAAUCUGCCCUCAGAGCUCGAGAACAUCUUCGGAUGCAGGGGAGGCAGGCUUCGGUGGCGCGAUACCGCCAACGUCCUCAACCUCCCAUGCAUCCCACCACAUGAUGAUGCCUGAAGAGCGUUGGUUUUUUG, the “polymerase ribozyme fitness (log ratio)” value was -0.889.
In the case of GACCAAUCUGCCCUCAGAGCUCGAGAACAUCUUCGGAUGCAGGGGAGGCAGGCUUCGGUGGCGCGAUAGCGCCAAUGUCCUCAACCUCCAAUGCAUCCCACCACAUGAGGAUGCCUGAAGAGCCUUGGUUUUUUG, the “polymerase ribozyme fitness (log ratio)” value is reported as -6.79.
In the case of GACCAAUCUGCCCUCAGAGCUCGAGAACAUCUUCGGAUGCAGUGGAGGCAGGCUUCGGUGGCGCGAUAGCGCCAACGUCCUCAACCUCCAAUGCAUCCCACCACAUGAUGGUGCCUGAAGAGCCUUGGUUUUUUG, the “polymerase ribozyme fitness (log ratio)” value is reported as -0.575.
In the case of GACCAAUCUGCCCUCAGAGCUCGAGAACAUCUUCGGAUGCAGGGGAUGCAGGCUUCGGUGGCGCGAUAGCGCCAACGUCCUCAACCUCCAAUGCAUCCCACCACAUGAUGAUGCCUGAAGAGCCUUGGUUUUUUG, the “polymerase ribozyme fitness (log ratio)” value is reported as -3.37.
With GACCAAUCUGCCCUCAGAGCUCGAGAACAUCUUCGGAUGCAGGGGAGGCAGGCUUCGGUGGCGCGAUAGCGGCAACGUCCUCAACCUCCAAUGCAUCCCACCACAUGAUGAUGCCUGAAGAGCCUUGGUUUAUUC the “polymerase ribozyme fitness (log ratio)” value was -2.2.
